Consider one substance from patent US5981483.

The target of test [1] is purified human TGF-β1 (human) (UniProt P01137).
In another test the target is BMP-4. In words: SPR (BIAcore); analyte over immobilized cytokine. In general terms: Surface plasmon resonance follows binding to a sensor surface in real time, without labels.
The target of a further test is TGF-β2. Description: SPR (BIAcore); analyte over immobilized cytokine.
Test [2] addresses purified human TGF-β1 (human) (UniProt P01137). This is another data set of the same source.

The Kd is the constant that tells how readily two partners part at equilibrium. The low end stands for higher affinity, the high end for lower affinity. In general, koff refers to the rate constant with which the complex falls apart. Lower therefore signals slow dissociation. What is called kon is the rate constant with which the complex forms.

Consider “bovine thyroglobulin (from UniProt P01267)”, for which the percent neutralization of the antiproliferative activity of TGF-β1 (3H-thymidine incorporation, Mv1Lu cells) in test [1] was found to be 150%. Further, in the test with BMP-4, the Kd is 20 nM, the koff was 0.0011 s⁻¹ and the kon was found to be 54000 M⁻¹ s⁻¹. Further, in the test with TGF-β2, the Kd came to 3.8 µM, the koff was 0.005 s⁻¹ and the kon amounted to 1300 M⁻¹ s⁻¹. Further, in test [2], the IC50, neutralization of TGF-β1 activity in the Mv1Lu growth inhibition assay was 220 nM.
